Where “and” joins values, the source holds several entries; their conditions need not be identical. Identical values can stand only once.
What was measured:
[1] = biological target: T1, IL-18 receptor (heterodimeric surface receptor composed of α- and β-chains) on KG-1 cells; assay: cell-based or functional assay
[2] = biological target: T2, IL-18 receptor alpha chain (UniProt Q13478 19-329, limits assumed); assay: SPR (BIAcore)
T2 construct: also called IL-18Rα; IL-18 Rα
T2 sequence (looked up): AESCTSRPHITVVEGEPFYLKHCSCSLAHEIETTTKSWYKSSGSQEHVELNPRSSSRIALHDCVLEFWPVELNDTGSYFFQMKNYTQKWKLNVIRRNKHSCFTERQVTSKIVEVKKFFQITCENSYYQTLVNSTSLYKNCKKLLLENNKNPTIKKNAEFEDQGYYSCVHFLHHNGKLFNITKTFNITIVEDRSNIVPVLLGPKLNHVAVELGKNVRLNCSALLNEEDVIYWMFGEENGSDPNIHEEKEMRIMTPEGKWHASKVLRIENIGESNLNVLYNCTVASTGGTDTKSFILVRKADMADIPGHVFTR

[3] = biological target: T1, IL-18 receptor (heterodimeric surface …); assay: cell-based or functional assay; remark: listed apart in the source

Binder	NF-κB KG-1 EC50 [1]	NF-κB KG-1 EC50 (ng/ml), av. [1] [ng/mL]	Kd [2] [µM]	NF-κB bioassay, reduction in potency relative to the native IL-18 [3] [fold]
human IL-18 C38S, C68D, D157C (SEQ ID NO:8) (ligand, Non-pegylated substitution mutant; also called IL-18 C157 (C38S, C68D, D157C)) YFGKLESKLSVIRNLNDQVLFIDQGNRPLFEDMTDSDSRDNAPRTIFIISMYKDSQPRGMAVTISVKDEKISTLSCENKIISFKEMNPPDNIKDTKSDIIFFQRSVPGHDNKMQFESSSYEGYFLACEKERDLFKLILKKEDELGDRSIMFTVQNEC	0.004 µg/mL	4	0.196	~10
human IL-18 C38S, C68D, D157C (SEQ ID NO:8) monopegylated at C157 with 30K PEG (ligand, methoxy polyethylene glycol maleimide, 30,000 Da, on Cys 157, also called IL-18 C157PEG30K; 157C-30K) YFGKLESKLSVIRNLNDQVLFIDQGNRPLFEDMTDSDSRDNAPRTIFIISMYKDSQPRGMAVTISVKDEKISTLSCENKIISFKEMNPPDNIKDTKSDIIFFQRSVPGHDNKMQFESSSYEGYFLACEKERDLFKLILKKEDELGDRSIMFTVQNEC	0.094 µg/mL and 0.043 µg/mL	68.5	5.33	–
human IL-18 C38S, C68D, L144C (SEQ ID NO:7) monopegylated at C144 with 30K PEG (ligand, methoxy polyethylene glycol maleimide, 30,000 Da, on Cys 144, also called IL-18 C144PEG30K) YFGKLESKLSVIRNLNDQVLFIDQGNRPLFEDMTDSDSRDNAPRTIFIISMYKDSQPRGMAVTISVKDEKISTLSCENKIISFKEMNPPDNIKDTKSDIIFFQRSVPGHDNKMQFESSSYEGYFLACEKERDLFKLILKKEDECGDRSIMFTVQNED	0.038 µg/mL	38	4.26	–
human IL-18 C38S, C68S, L144C (SEQ ID NO:9) monopegylated at C144 with 30K PEG (ligand, methoxy polyethylene glycol maleimide, 30,000 Da, on Cys 144, also called IL-18 C144PEG30K) YFGKLESKLSVIRNLNDQVLFIDQGNRPLFEDMTDSDSRDNAPRTIFIISMYKDSQPRGMAVTISVKSEKISTLSCENKIISFKEMNPPDNIKDTKSDIIFFQRSVPGHDNKMQFESSSYEGYFLACEKERDLFKLILKKEDECGDRSIMFTVQNED	0.044 µg/mL	44	8.26	–
human IL-18 C38S, C68D, L144C (SEQ ID NO:7) monopegylated at C144 with 40K PEG (ligand, methoxy polyethylene glycol maleimide, 40,000 Da, on Cys 144, also called IL-18 C144PEG40K) YFGKLESKLSVIRNLNDQVLFIDQGNRPLFEDMTDSDSRDNAPRTIFIISMYKDSQPRGMAVTISVKDEKISTLSCENKIISFKEMNPPDNIKDTKSDIIFFQRSVPGHDNKMQFESSSYEGYFLACEKERDLFKLILKKEDECGDRSIMFTVQNED	0.271 µg/mL and 0.33 µg/mL	300	5.35	–
human IL-18 C38S, C68S, L144C (SEQ ID NO:9) monopegylated at C144 with 20K PEG (ligand, methoxy polyethylene glycol maleimide, 20,000 Da, on Cys 144, also called IL-18 C144PEG20K) YFGKLESKLSVIRNLNDQVLFIDQGNRPLFEDMTDSDSRDNAPRTIFIISMYKDSQPRGMAVTISVKSEKISTLSCENKIISFKEMNPPDNIKDTKSDIIFFQRSVPGHDNKMQFESSSYEGYFLACEKERDLFKLILKKEDECGDRSIMFTVQNED	0.071 µg/mL and 0.092 µg/mL	81.5	5.19	–
human IL-18 C38S, C68S, D157C (SEQ ID NO:10) monopegylated at C157 with 20K PEG (ligand, methoxy polyethylene glycol maleimide, 20,000 Da, on Cys 157, also called IL-18 C157PEG20K; 157C-20K) YFGKLESKLSVIRNLNDQVLFIDQGNRPLFEDMTDSDSRDNAPRTIFIISMYKDSQPRGMAVTISVKSEKISTLSCENKIISFKEMNPPDNIKDTKSDIIFFQRSVPGHDNKMQFESSSYEGYFLACEKERDLFKLILKKEDELGDRSIMFTVQNEC	0.049 µg/mL and 0.059 µg/mL	54	5.5	–
human IL-18 C38S, C68D, D157C (SEQ ID NO:8) monopegylated at C157 with 20K PEG (ligand, methoxy polyethylene glycol maleimide, 20,000 Da, on Cys 157, also called IL-18 C157PEG20K; 157C-20K) YFGKLESKLSVIRNLNDQVLFIDQGNRPLFEDMTDSDSRDNAPRTIFIISMYKDSQPRGMAVTISVKDEKISTLSCENKIISFKEMNPPDNIKDTKSDIIFFQRSVPGHDNKMQFESSSYEGYFLACEKERDLFKLILKKEDELGDRSIMFTVQNEC	–	37.3	5.16	–
human IL-18 C38S, C68D, L144C (SEQ ID NO:7) monopegylated at C144 with 20K PEG (ligand, methoxy polyethylene glycol maleimide, 20,000 Da, on Cys 144, also called IL-18 C144PEG20K) YFGKLESKLSVIRNLNDQVLFIDQGNRPLFEDMTDSDSRDNAPRTIFIISMYKDSQPRGMAVTISVKDEKISTLSCENKIISFKEMNPPDNIKDTKSDIIFFQRSVPGHDNKMQFESSSYEGYFLACEKERDLFKLILKKEDECGDRSIMFTVQNED	0.058 µg/mL and 0.066 µg/mL and 0.042 µg/mL	55.3	2.69	–
human IL-18 C38S, C68S, D157C (SEQ ID NO:10) (ligand, Non-pegylated substitution mutant; also called IL-18 C157 (C38S, C68S, D157C)) YFGKLESKLSVIRNLNDQVLFIDQGNRPLFEDMTDSDSRDNAPRTIFIISMYKDSQPRGMAVTISVKSEKISTLSCENKIISFKEMNPPDNIKDTKSDIIFFQRSVPGHDNKMQFESSSYEGYFLACEKERDLFKLILKKEDELGDRSIMFTVQNEC	–	2	0.41	–
human IL-18 C38S, C68D, L144C (SEQ ID NO:7) (ligand, Non-pegylated substitution mutant; also called IL-18 C144 (C38S, C68D, L144C)) YFGKLESKLSVIRNLNDQVLFIDQGNRPLFEDMTDSDSRDNAPRTIFIISMYKDSQPRGMAVTISVKDEKISTLSCENKIISFKEMNPPDNIKDTKSDIIFFQRSVPGHDNKMQFESSSYEGYFLACEKERDLFKLILKKEDECGDRSIMFTVQNED	0.0035 µg/mL and 0.0016 µg/mL	2.6	0.222	~10
human IL-18 C38S, C68S, L144C (SEQ ID NO:9) (ligand, Non-pegylated substitution mutant; also called IL-18 C144 (C38S, C68S, L144C)) YFGKLESKLSVIRNLNDQVLFIDQGNRPLFEDMTDSDSRDNAPRTIFIISMYKDSQPRGMAVTISVKSEKISTLSCENKIISFKEMNPPDNIKDTKSDIIFFQRSVPGHDNKMQFESSSYEGYFLACEKERDLFKLILKKEDECGDRSIMFTVQNED	–	2.6	0.534	–
human IL-18 C38S, C68D, D157C (SEQ ID NO:8) monopegylated at C157 with 40K PEG (ligand, methoxy polyethylene glycol maleimide, 40,000 Da, on Cys 157, also called IL-18 C157PEG40K; 157C-40K) YFGKLESKLSVIRNLNDQVLFIDQGNRPLFEDMTDSDSRDNAPRTIFIISMYKDSQPRGMAVTISVKDEKISTLSCENKIISFKEMNPPDNIKDTKSDIIFFQRSVPGHDNKMQFESSSYEGYFLACEKERDLFKLILKKEDELGDRSIMFTVQNEC	–	278	22.9	–
human IL-18 C38S, C68S, D157C (SEQ ID NO:10) monopegylated at C157 with 30K PEG (ligand, methoxy polyethylene glycol maleimide, 30,000 Da, on Cys 157, also called IL-18 C157PEG30K; 157C-30K) YFGKLESKLSVIRNLNDQVLFIDQGNRPLFEDMTDSDSRDNAPRTIFIISMYKDSQPRGMAVTISVKSEKISTLSCENKIISFKEMNPPDNIKDTKSDIIFFQRSVPGHDNKMQFESSSYEGYFLACEKERDLFKLILKKEDELGDRSIMFTVQNEC	0.047 µg/mL	47	6.34	–
